In US20230158109A1, “USE OF CD83 IN COMBINATION THERAPIES” (Colmmune, Inc., priority 2006, published 2023):
“Also recorded” adds a separate entry of the source.

How the values were obtained:
[1] = test system: C57BL/6 Hearts in BALB/c Recipients; assay: Intra-abdominal heterotopic heart transplantation, graft survival, C57BL/6 to BALB/c; format: in vivo, mouse; conditions: sCD83 100 μg i.p. daily day -1 to 7, then every other day to day 28, tacrolimus 8 mg/kg/day oral, MMF 80 mg/kg/day oral
Experimental: Treatment with tacrolimus was by daily oral administration of a subtherapeutic dose of 8 mg/kg/day, and treatment with MMF was by daily oral administration of a low dose of 80 mg/kg/day.
In further experiments, transplant recipients were treated with a shorter course of administrations and a different route of administration.

[2] = test system: C3H Hearts in BALB/c Recipients; assay: Heterotopic heart transplantation, graft survival, C3H to BALB/c; conditions: sCD83 100 μg i.p. daily day -1 to 28, sirolimus 2 mg/kg oral day 0-14, anti-CD45RB 100 μg i.v. day 0-14
Experimental: (§2) Hearts were removed from donor mice as indicated and transplanted into the peritoneal cavity of recipient mice (i.e., heterotopic transplantation). Recipient mice were treated as indicated, with some treatments beginning prior to transplantation. Survival of the allograft was monitored and scored as follows: “A,” beating strongly; “B,” mild decline in the intensity of pulsation; “C,” noticeable decline in the intensity of pulsation; “D,” complete cessation of cardiac impulses. Mean survival time of the transplanted tissue was determined for each treatment.
In a first set of experiments, C3H donor mice and BALB/c recipient mice were used. In this set of experiments, sCD83 treatment began on day −1 (i.e., the day prior to transplantation) and lasted until day 28; each day, 100 μg of sCD83 was administered to each mouse by intraperitoneal injection. Sirolimus treatment began on day 0 (i.e., the day of transplantation) and continued until day 14; each day, 2 mg/kg of sirolimus was administered orally to each mouse. Anti-CD45RB treatment began on day 0 and continued until day 14; each day, 100 μg of anti-CD45RB (BioExpress, Inc., West Lebanon, New Hampshire) was administered to each mouse intravenously.

[3] = test system: C3H Hearts in C57BL/6 Recipients; assay: Heterotopic heart transplantation, graft survival, C3H to C57BL/6
Experimental: as §2
In a further set of experiments, C3H mouse hearts were transplanted into the peritoneal cavity of C57BL/6 mice (results shown in Table 3 and FIG. 7). […] Other treatments included subtherapeutic doses of either anti-CD45RB monoclonal antibody (“mAb”) (i.e., 100 μg/mouse every day from days 0 through 14 by intravenous injection) or sirolimus (i.e., 2 mg/kg every day from days 0 through 14 by oral administration (“p.o.”)).

[4] = test system: T cells stimulated with allogeneic mature dendritic cells; assay: Regulatory T cell generation by sCD83-treated allogeneic dendritic cells; format: cell-based, cynomolgous monkeys; conditions: DCs treated with sCD83 50 μg/ml; different DC:T ratios
Experimental: Regulatory T cells were also prepared using dendritic cells prepared from cynomolgous monkeys, as follows. Cynomolgous monkey myeloid dendritic cells were generated from CD14^+ monocyte cells in the presence of GM-CSF and IL-4 for 7 days; soluble CD83 at 50 ug/ml was added to some cultures on days 3 through 7, and a maturation cocktail of IL-1(3, IL-6, TNF-α and PGE-2 was added on days 5 through 7. T cells (1×10^6/ml) were isolated by negative selection and stimulated at different ratios with the allogeneic mature dendritic cells that had been either treated or untreated with sCD83 (50 μg/ml). Cells were then stained to identify regulatory T cells (i.e. CD4^+CD25^+ Foxp3^+ cells) and analyzed by FACS.

[5] = test system: donor-specific allo-antibody (IgM, IgG); assay: Allo-antibody in transplant recipient sera (staining of donor splenocytes); format: in vivo, mouse; conditions: C3H heart in C57BL/6; sera eight days after transplantation
Experimental: In these experiments, sera were collected from transplant recipients (from control-treated, sCD83-treated and treatment-naïve individuals). Splenocytes were removed from the transplant donor(s) and incubated with the transplant recipient sera. The binding of antibodies from the allo-anti sera to the surface of the transplant donor splenocytes was monitored selectively using antibodies specific for the Fc-fragments of mouse IgM and IgG. […] Stained cells can be analyzed using FACS.
In the transplantation procedure, hearts were removed from C3H mice and transplanted into C57BL/6 mice, which were then either treated with sCD83 or left untreated. Sera were collected from the C57BL/6 transplant recipients eight days after transplantation (the approximate time when untreated mice would typically reject the transplant (i.e., show full tissue rejection)). This recipient sera was then used to stain splenocytes from the C3H donors, and allo-antibody binding was detected with FITC-conjugated antibodies specific to either the anti-IgG or anti-IgM Fc-fragment. […] Sera from untreated transplant recipients was also able to stain C3H-donor-derived splenocytes above control levels.

spleen cells = assay: KLH re-stimulation assay, CD83 window of effectiveness; format: in vivo, CBA mice; conditions: sCD83 100 μg 10 times every second day; KLH after 11 days; spleen cells ten days later
Experimental: Mice were evaluated to determine the period of time after administration of CD83 in which a subject would be tolerized to another administered antigen. Soluble CD83 (100 μg) was administered to CBA mice by injection 10 times every second day. After 11 days, treated animals were immunized with keyhole limpet hemocyanin (KLH, 10 μg). Ten days later, spleen cells were removed and re-stimulation assays were performed as described in International patent publication WO 2004/046182, the contents of which are incorporated by reference.

CD4+ T cells = assay: Regulatory T cell generation from purified CD4+ T cells; format: cell-based, cynomolgus monkeys; conditions: CD4+ T cells stimulated for 6 days
Excerpt: To evaluate the effect of sCD83 on CD4^+ T cells, these cells were purified from cynomolgus monkeys and then stimulated in the presence or absence of sCD83 or anti-CD28 mAb for 6 days. Cells were then stained to identify regulatory T cells (i.e., CD4^+CD25^+ Foxp3^+ cells) and analyzed by FACS.

[6] = test system: spleen cells (lymphocytes); assay: KLH restimulation of spleen cells from sCD83-treated EAE mice; format: in vivo, mouse; conditions: sCD83 100 μg daily for ten days, KLH 28 days after last injection, spleen cells ten days later
Experimental: In order to induce EAE, mice were immunized with a peptide derived from myelin oligodendrocyte glycoprotein (MOG), a constituent of the myelin sheath surrounding neurons of the central nervous system, and with pertussis toxin (see, e.g., Zinser et al. (2004) J. Exp. Med. 200: 345-351). Beginning ten days later, the mice were inoculated with soluble CD83 (100 μg) every day for ten days. 28 days after the last injection of soluble CD83, mice were injected subcutaneously with keyhole limpet hemocyanin (“KLH,” 10 μg/mouse). Ten days later, spleen cells were removed from the mice and restimulated with different doses of KLH. Lymphocyte proliferation in response to this stimulation was measured by [^3H]-thymidine incorporation.

[7] = test system: B cells of transplant recipient; assay: Ex vivo IgM and IgG production by transplant recipient B cells; parameters: species or system mouse; conditions: C3H heart in C57BL/6; sCD83 100 μg daily i.p.; B cells day 8, LPS, 72 hours
Experimental: IgM & IgG production: C57B1/6 mice were given a heterotopic cardiac allograft from a C3H mouse. Mice then were left untreated or were treated with a daily dose of 100 μg of sCD83 by intraperitoneal injection. Mice were then sacrificed on day 8, which was approximately the mean survival time of untreated mice. B cells were harvested from the spleens of recipient mice and cultured at 2×10^6 B-cells/well with 20 ug/mL LPS (to induce antibody production, with no added sCD83). After 72 hours of culture, supernatants were harvested and IgM and IgG production measured by ELISA.
Eight days after transplantation (when the transplant would typically be rejected in untreated mice), the mice were sacrificed. B cells were purified from recipient mice, cultured, and stimulated with LPS. After 72 hours of culture, supernatants were collected and IgM and IgG production was measured using ELISA.

monocytes = assay: TNF-α and activation markers in monocytes of PBMCs; format: cell-based, cynomolgus monkeys; conditions: PBMCs incubated overnight with sCD83
Experimental: (§1) To evaluate the effect of sCD83 on monocytes, isolated PBMCs (1×10^6 cells) from cynomolgus monkeys were incubated overnight with sCD83 (1×10^6 cells). Intracellular TNF-α levels and surface markers were detected in monocytes using FACS. Results representative of one out of three experiments are shown in FIG. 12; results were expressed as % positive cells and mean fluorescence units (MFU).

mDCs = assay: TNF-α and activation markers in mDCs of PBMCs stimulated with LPS and IFN-γ; format: cell-based, cynomolgus monkeys; conditions: PBMCs incubated overnight with sCD83; LPS 1 μg/ml and IFN-γ 100 U/ml for 6 hours
Excerpt: We wished to examine the in vitro functional properties of human sCD83 on peripheral blood DCs, monocytes, and T cells. Mature DCs (“mDCs”) from cynomolgus monkeys were identified using FACS with four-color staining as cells that were HLA-DR positive, lineage negative (i.e. CD3, CD20, CD14, and CD16 negative), and CD11c positive. Intracellular TNF-α, IL-6, and surface markers CD83, CD80, CD86, and CCR5 (which are increased in activated, mature DCs) were also monitored.
as §1, with “mDCs,” for “monocytes,”, “sCD83. Cells were stimulated with LPS (1 μg/ml) and IFN-γ (100 U/ml) for 6 hours.” for “sCD83 (1×10^6 cells).”, “mDCs” for “monocytes”, “11;” for “12;”

dendritic cells = conditions: soluble CD83 4 μg/ml in final maturation step, cited from earlier work
[8] = test system: B cells of transplant recipient; assay: Ex vivo proliferation of transplant recipient B-cells; parameters: species or system mouse; conditions: C3H heart in C57BL/6; sCD83 100 μg daily i.p.; B cells day 8, stimulated with LPS
Experimental: Antibody Production Protocols for ex vivo Work: B cell proliferation: C57B1/6 mice were given a heterotopic cardiac allograft from a C3H mouse. Mice were then left untreated or were treated with a daily dose of 100 μg of sCD83 by intraperitoneal injection. Mice were then sacrificed on day 8, which was approximately the mean survival time of untreated mice. B-cells were then harvested from the mouse spleens and pure populations of 10^5 B-cells/well were cultured with 2 μg/mL of LPS to stimulate the cells (with no added sCD83). After 48 hours of culture, ^3H-thymidine was added, and after an additional 18-20 hours of culture, the cells were harvested and ^3H-thymidine incorporation was measured.
Eight days after transplantation (when the transplant would typically be rejected in untreated mice), the mice were sacrificed. B cells were purified from recipient mice, cultured, and stimulated with LPS. ^3H-thymidine incorporation was measured as counts per minute (cpm).

[9] = test system: mouse immunostimulatory dendritic cells and mouse T cells; assay: Allogenic MLR assay with murine BM-DCs and T cells; format: cell-based
Experimental: C57/BL6 mice and BALB/C mice (male or female; Charles River, Wiga, Sulzfeld, Germany) were used at the ages of between 1 and 4 months. Generation of bone-marrow-derived dendritic cells (“BM-DCs”) was performed as described in Lutz et al. (1999) J. Immunol. Meth. 223: 77. RPMI 1640 (Life Technologies, Karlsruhe, Germany) was supplemented with 100 U/ml penicillin (Sigma), 100 μg/ml streptomycin (Sigma), 2 mM L-glutamine (Sigma), […] (Sigma), and 10% heat-inactivated filtered FCS (PAA, Colbe, Germany). GM-CSF was used at 200 U/ml (PrepoTech/Tebu, Rocky Hill, N.J.) on days 0, 3, 6 and 8 of the incubation period.
An allogenic MLR assay was performed as follows: CD4^+ and CD8^+ T cells were isolated from inguinal and […] lymph nodes of BALB/C mice and co-cultured (2×10^5 cells/well) for 3 days with BM-DCs (at different ratios) that had been processed through day 9 of the preparation protocol for BM-DCs. Culture was in 96-well culture dishes, and the media was 200 microliters RPMI 1640 supplemented with 100 U/ml penicillin, 100 µg/ml streptomycin, 2 mM L-glutamine, […], and 10% heat-inactivated filtered FCS. […] The culture supernatants were harvested onto glass fiber filters using an Inotech 1H-110 harvester (Inotech, Dottikon, Switzerland), and filters were counted in a Wallac 1450 microplate counter (Wallac, Turku, Finnland).

[10] = sCD83 100 μg i.p. daily days 1-7 then q.o.d. days 8-16, sirolimus 2 mg/kg p.o. days 0-14, anti-CD45RB mAb 100 μg i.v. days 0-14

Molecule: C=CC[C@@H]1/C=C(\C)C[C@H](C)C[C@H](OC)[C@H]2O[C@@](O)(C(=O)C(=O)N3CCCC[C@H]3C(=O)O[C@H](/C(C)=C/[C@@H]3CC[C@@H](O)[C@H](OC)C3)[C@H](C)[C@@H](O)CC1=O)[C@H](C)C[C@@H]2OC [Tacrolimus, tacrolimus, reference compound]
- MST [1]: 16.3 ± 1.0 days

Molecule: CO[C@H]1C[C@@H]2CC[C@@H](C)[C@@](O)(O2)C(=O)C(=O)N2CCCC[C@H]2C(=O)O[C@H]([C@H](C)C[C@@H]2CC[C@@H](O)[C@H](OC)C2)CC(=O)[C@H](C)/C=C(\C)[C@@H](O)[C@@H](OC)C(=O)[C@H](C)C[C@H](C)/C=C/C=C/C=C/1C [Sirolimus, sirolimus, reference compound]
- MST [2]: 21.3 ± 6.2 days
- MST [3, 10]: 16.7 ± 2.1 days

B1: sCD83: recombinant extracellular domain of human CD83 cleaved from GST fusion, with four extra amino acids (Gly-Ser-Pro-Gly) at the amino terminal (protein, listed as Homo sapiens)
chain: GSPGTPEVKVACSEDVDLPCTAPWDPQVPYTVSWVKLLEGGEERMETPQEDHLRGQHYHQKGQNGSFDAPNERPYSLKIRNTTSCNSGTYRCTLQDPDGQRNLSGKVILRVTGCPAQRKEETFKKYRAE
modifications: printed: Gly-Ser-Pro-Gly; (1)..(125) Extracellular domain of human CD83
notes: recombinant extracellular domain of human CD83 cleaved from GST fusion, with four extra amino acids (Gly-Ser-Pro-Gly) at the amino terminal
- Regulatory T cells generated by dendritic cells [4]: increased numbers of regulatory T cells
- Allo-antibody activity (donor-specific binding of IgM or IgG) [5]: low allo-antibody activity; also recorded: can prevent the induction of an allo-antibody response
- Tolerization to KLH (re-stimulation assay) (spleen cells): not tolerized to the antigen
- Generation of regulatory T cells (CD4+CD25+ Foxp3+ cells) (CD4+ T cells): promoted the generation of regulatory T cells
- Lymphocyte proliferation in response to KLH ([3H]-thymidine incorporation) [6]: did not induce long-lasting, global immunosuppression
- Ex vivo antibody production (IgM and IgG, ELISA) [7]: suppresses
- In vitro production of TNF-α by monocytes (monocytes): moderately suppressed
- Surface expression of monocyte activation markers (monocytes): moderately suppressed
- In vitro production of TNF-α by mDCs (mDCs): suppressed
- Surface expression of mDC activation markers CD83, CD86, CCR5, and CD80 (mDCs): suppressed
- CD14 positive cells (dendritic cells; compared with normally matured DCs): increase
- Cell surface expression of CD80 (dendritic cells; normally matured DCs 96%): 66%
- Cell surface expression of CD83 (dendritic cells; normally matured DCs 96%): 30%
- MST [1]: 15.8 ± 1.0 days
- Ex vivo B-cell proliferation (3H-thymidine incorporation) [8]: suppresses
- MST [2]: 10.0 ± 1.4 days
- Cluster formation between dendritic cells and T cells [9]: inhibited
- Ability of murine immunostimulatory dendritic cells to stimulate T cells ([9]; [3H]-thymidine): inhibited in a concentration-dependent manner
- Acute rejection / graft acceptance (in words) ([3]; sCD83 100 μg): reduced symptoms of acute rejection
- MST [3, 10]: 10.7 ± 1.5 days
- MST ([3]; sCD83 266 ug): 14.7 ± 0.6 days
- MST ([3]; sCD83 400 ug): 15 ± 1.0 days
